{"source": "paper PMC11039692", "about": "“SRY-Box transcription factor 9 triggers YAP nuclear entry via direct interaction in tumors” (Signal Transduction and Targeted Therapy, 2024)", "molecules": {"B1": {"name": "SOX9: recombinant GST-SOX9 protein (Abcam, ab131911) (protein)", "chain": "MNLLDPFMKMTDEQEKGLSGAPSPTMSEDSAGSPCPSGSGSDTENTRPQENTFPKGEPDLKKESEEDKFPVCIREAVSQVLKGYDWTLVPMPVRVNGSSKNKPHVKRPMNAFMVWAQAARRKLADQYPHLHNAELSKTLGKLWRLLNESEKRPFVEEAERLRVQHKKDHPDYKYQPRRRKSVKNGQAEAEEATEQTHISPNAIFKALQADSPHSSSGMSEVHSPGEHSGQSQGPPTPPTTPKTDVQPGKADLKREGRPLPEGGRQPPIDFRDVDIGELSSDVISNIETFDVNEFDQYLPPNGHPGVPATHGQVTYTGSYGISSTAATPASAGHVWMSKQQAPPPPPQQPPQAPPAPQAPPQPQAAPPQQPAAPPQQPQAHTLTTLSSEPGQSQRTHIKTEQLSPSHYSEQQQHSPQQIAYSPFNLPHYSPSYPPITRSQYDYTDHQNSSSYYSHAAGQGTGLYSTFTYMNPAQRPMYTPIADTSGVPSIPQTHSPQHWEQPVYTQLTRP"}}, "tested_on": "FLAG-YAP", "assay": "In vitro protein pull-down assay", "format": "binding", "details": "recombinant GST-SOX9 20 μM and FLAG-YAP 20 μM, FLAG beads, overnight at 4 °C", "method": "FLAG-YAP protein (20 μM) purified from SF9 was incubated with 20 μM GST-SOX9 protein (Abcam, ab131911), GST protein, or blank control in the presence of FLAG beads (Sigma-Aldrich, A2220) overnight at 4 °C. Following this, the beads were washed two times in binding and wash buffer (20 mM Tris [pH 8.0], 150 mM NaCl, 0.5% NP40, 0.5% TritonX-100, 1 mM DTT, and 10% glycerol), and one wash with high salt buffer (20 mM Tris [pH 8.0], 250 mM NaCl, 0.5% NP40, 0.5% TritonX-100, 1 mM DTT, and 10% glycerol). The slurry was boiled with SDS buffer and then subjected to immunoblot."}
{"molecule": "B1", "values": [{"measurement": "direct interaction with YAP (pull-down)", "result": "demonstrated the direct interaction between SOX9 and YAP"}]}
